Data on 41 sequences can be found in the nanobody polyreactivity screen of Harvey et al. (2022).

This data set is described as follows: yeast display, Sf9 membrane polyspecificity reagent, FACS + sequencing; frameworks hold sequencing errors. In a few lines: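 A nanobody's polyreactivity label depends on the gate it was sorted from. Yeast display cells were stained with 10% biotinylated, detergent-solubilized Sf9 membrane reagent for 1 hour at 4 °C, enriched on streptavidin microbeads and sorted by FACS. The low and high (top ~1%) gates were set on anti-HA fluorescence for expression and streptavidin fluorescence for reagent binding.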
Turning to “QVQLVESGGGLVQAGGSLRLSCAASGSTFYKYAMGWYRQAPGKERELVARISRGGGSTYYADSVKGRFTISRDNAKNTVYLQMNSLKPEDTAVYYCAAGVRGQNDGYYWGQGTEVTVSS”, the “polyreactivity (PSR sort gate)” value is reported as “high polyreactivity”.

As for “QVQLVESGGGLVQAGGSLRLSCAASGSTFYLNAMGWYRQAPGKERELVAAIDYRGGSTYYADSVKGRFTISRDNAKNTVYLQMNSLKPEDTAVYYCNADYVYVHYQPGYYWGQGTQVTVSS”, the “polyreactivity (PSR sort gate)” value is on record as “low polyreactivity”.

Take “QVQLVESGGGLVQAGGSLRLSCAASGSTFYLNAMGWYRQAPGKERELVAAITVSGGSTYYADSVKGRFTISRDNAKNTVYLQMNSLKPEDTAVYYCARELLSPTYQRWYYYWGQGTQVTVSS”: the “polyreactivity (PSR sort gate)” value is given as “low polyreactivity”.

For “QVQLVESGGGLVQAGGSLRLSCAASGSTFYLYAMGWYRQAPGKEREFVAAISWSGGRTYYAYSVKGRFTISRDNAKNTVYLQMNSLKPEDTAVYYCAARRRYTWQYTRYDMGYWGQGTQVTVSS”, the “polyreactivity (PSR sort gate)” value is recorded as “low polyreactivity”.

“QVQLVESGGGLVQAGGSLRLSCAASGSTFYLYAMGWYRQAPGKEREFVARISASGGNTYYADSVKGRFTISRDNAKNTVYLQMNSLKPEDTAVYSCAARVRGRNASDYDYYYWGQGTQVTVSS”: the “polyreactivity (PSR sort gate)” value is “high polyreactivity”.

“QVQLVESGGGLVQAGGSLRLSCAASGSTFYLYAMGWYRQAPGKERELVAAISSGGRTYYADSVKGRFTISRDNAKNTVYLQMNRLKPEDTAVYYCAKVYRRRYYWGQGTQVNVSS”: the “polyreactivity (PSR sort gate)” value was “high polyreactivity”.

“QVQLVESGGGLVQAGGSLRLSCAASGSTFYLYAMGWYRQAPGKERELVAAITFRGSRTYYADSVKGRFTISRDNAKNTVYLQMNRLKPEDTAVYYCAKEKYRTREHDSWGQGTQVTVSS”: the “polyreactivity (PSR sort gate)” value is on record as “low polyreactivity”.

In the case of “QVQLVESGGGLVQAGGSLRLSCAASGSTFYLYAMGWYRQAPGKERELVAAITYGGGSTYYADSVKGRFTISRDNAKNTVYLQMNSLKPEDTAVYYCAARWLYWPRYTSLVYTHRDSWGQGTQVTVSA”, the “polyreactivity (PSR sort gate)” value is “low polyreactivity”.

For the sequence “QVQLVESGGGLVQAGGSLRLSCAASGSTFYLYAMGWYRQAPGKERELVASITYSGASTYYADSVKGRFTISRDNAKNTVYLQMNSLKPEDTAVYYCAADQRGWFAVGSQRKYNYWGQGTQVTVSS”, the “polyreactivity (PSR sort gate)” value is given as “low polyreactivity”.

As for “QVQLVESGGGLVQAGGSLRLSCAASGSTFYLYTMGWYRQAPGKERELVAAISRSGGSTRYADSVKGRFTISRDNAKNTVYLQMNSLKPEDTAVYYCAARSTVYPRPHERDYWGQGTQVTVSS”, the “polyreactivity (PSR sort gate)” value is listed as “high polyreactivity”.

Turning to “QVQLVESGGGLVQAGGSLRLSCAASGSTFYNYAMGWYRQAPGKERELVASISSSGGSTYADSVKGRFTISRDNAKNTVYLQMNSLKPEDTAVYYCARVRWIVPWYGPTDDYWGQGTQVTVSS”, the “polyreactivity (PSR sort gate)” value is “low polyreactivity”.

On to “QVQLVESGGGLVQAGGSLRLSCAASGSTFYPNAMGGYRQAPGKERELVATITQRGGTTYYADSVKGRFTISRDNAKNTVYLQMNSLKPEDTAVYYCNAGPVRLPYDSWGQGTQVTVSS”, for which the “polyreactivity (PSR sort gate)” value is on record as “low polyreactivity”.

Take “QVQLVESGGGLVQAGGSLRLSCAASGSTFYPNAMGWYRQAPGKERELVAAISRGTRTKYADSVKGRFTISRDNAKNTVYLQMNSLKPEDTAVYYCAADTGTGLDWGQGTQVNVSS”: the “polyreactivity (PSR sort gate)” value is listed as “high polyreactivity”.

As for “QVQLVESGGGLVQAGGSLRLSCAASGSTFYPNAMGWYRQAPGKERELVAAISWSGGRTYYADSVKGRFTISRDNAKNTVYLQMNSLKPEDTAVYYCNRYHRTSWRAKYDYWGQGTQVTVSS”, the “polyreactivity (PSR sort gate)” value was “high polyreactivity”.

Regarding “QVQLVESGGGLVQAGGSLRLSCAASGSTFYPNAMGWYRQAPGKERELVAAITSGGSTYYADSVKGRFTSSRDNAKNTVYLQMTSLKPEDTAVYYCAAQRRYHQDTTIGPGNYSYWGQGTQVTVSS”, the “polyreactivity (PSR sort gate)” value is listed as “low polyreactivity”.

Turning to “QVQLVESGGGLVQAGGSLRLSCAASGSTFYPNAMGWYRQAPGKERELVAVITRSGGSTYYADSVKGRFTISRDNAKNTVYLQMNSLKPEDTAVYYCNAAYRTAYYGPRYDYWGQGTQVTVSS”, the “polyreactivity (PSR sort gate)” value is on record as “high polyreactivity”.

Consider “QVQLVESGGGLVQAGGSLRLSCAASGSTFYPTAMGWYRQAPGKERELVAAIRVRGGSTYYADSVKGRYTISRDNAKNTVYLKRNCLKPEDTAVYYCNADTFSSFGWGQGTQVTVSS”, for which the “polyreactivity (PSR sort gate)” value is “low polyreactivity”.

Turning to “QVQLVESGGGLVQAGGSLRLSCAASGSTFYPYAMGWYRPAHGKERELVAAITSRVGRTYYADSVKGRFTISRDNAKNTVYLQMNSLKPEDTAVYYCAAKIFIRVHYYSYRMYYWGQGTQVTVSS”, the “polyreactivity (PSR sort gate)” value is “low polyreactivity”.

With “QVQLVESGGGLVQAGGSLRLSCAASGSTFYPYAMGWYRPAPGKERELVASITLRGSSTYYADSVKGRFTISRDNAKNTVYLQMNSLKPEDTAVYYCAKEGYLYLWRYDYWGQGTQVTVSS”, the “polyreactivity (PSR sort gate)” value is given as “high polyreactivity”.

With “QVQLVESGGGLVQAGGSLRLSCAASGSTFYPYAMGWYRQAPGKEREFVAGISRSGGTTYYADSVKGRFTISRDNAKNTVYLQMNSLKPEDTAVYYCAVQIPYVYWSYDYWGQGTQVTVSS”, the “polyreactivity (PSR sort gate)” value is “low polyreactivity”.

Turning to “QVQLVESGGGLVQAGGSLRLSCAASGSTFYPYAMGWYRQAPGKEREFVARISVSAGRTYYADSVKGRFTISRDNAKNTVYLQMNSLKPEDTAVYYCAKGIPTFYGSPRYDYWGQGTQVTVSS”, the “polyreactivity (PSR sort gate)” value is given as “low polyreactivity”.

As to “QVQLVESGGGLVQAGGSLRLSCAASGSTFYPYAMGWYRQAPGKERELVAAIDRGGSTSYADSVKGRFTISRDNAKNTVYLQMNSLKPEDTAVYYCAVARGGRRKYEYWGQGTQVTVSS”, the “polyreactivity (PSR sort gate)” value is on record as “low polyreactivity”.

“QVQLVESGGGLVQAGGSLRLSCAASGSTFYPYAMGWYRQAPGKERELVAAISSGGSTSYADSVKGRFTISRDNAKNTVYLQMNSLKPEDTAVYYCAVDVAGGEGMDYWGQGTQVTVSS”: the “polyreactivity (PSR sort gate)” value is given as “low polyreactivity”.

As to “QVQLVESGGGLVQAGGSLRLSCAASGSTFYPYAMGWYRQAPGKERELVAAISSGGSTYYADSVKGRFTISRDNAKNTVYLQMNSLKPEDTAVYYCAADFYYAYYWGQGTEVTVSS”, the “polyreactivity (PSR sort gate)” value is listed as “low polyreactivity”.

Take “QVQLVESGGGLVQAGGSLRLSCAASGSTFYPYAMGWYRQAPGNERELVAAITGTGGSTYYADSVKGRFTISRDNAKNTVYLQMNSLKPEDTAVYYCATRRRYYYSRYNYWGQGTQVTVSS”: the “polyreactivity (PSR sort gate)” value is reported as “high polyreactivity”.

Turning to “QVQLVESGGGLVQAGGSLRLSCAASGSTFYPYAMGWYSQAPGKERELVAAISSGGSTSYADSVKGRFTISRDNAKNTVYLQMNSLKPEDTAVYYCNASSPGAVPVYDYDYWGQGTQVTVSS”, the “polyreactivity (PSR sort gate)” value was “low polyreactivity”.

Regarding “QVQLVESGGGLVQAGGSLRLSCAASGSTFYQNAMGWYRQAPGKERELVAAISIGGGRTYYADSVKGRFTISRDNAKNTVYLQMNSLKPEDTAVYYCAAGPTGRYRREFRFDYLGQGTQVTVSS”, the “polyreactivity (PSR sort gate)” value is reported as “low polyreactivity”.

Take “QVQLVESGGGLVQAGGSLRLSCAASGSTFYRNALGWYRQAPGKERELVARIYRSGSSTSYADSVKGRFTISRDYSKNTVYLQMNSLKPVDTAVYYCATVFVRYEMYWGQGTQLTVSS”: the “polyreactivity (PSR sort gate)” value is “high polyreactivity”.

Turning to “QVQLVESGGGLVQAGGSLRLSCAASGSTFYRNAMGWYRQAPGKEREFVAAISFRGGGTYADSVKGRFTISRDNAKNTVYFQMNILKPEDTAVYYCAADLLSYRGRYEYWGQGTQVTVSS”, the “polyreactivity (PSR sort gate)” value is given as “low polyreactivity”.

For the sequence “QVQLVESGGGLVQAGGSLRLSCAASGSTFYRNAMGWYRQAPGKERELVAGISYGGGSTYYADSVKGRFTISRDNAKNTVYLQMNSLKPEDTAVYYCNAVWVKRHYYYWGQGTQVTVSS”, the “polyreactivity (PSR sort gate)” value was “low polyreactivity”.

With “QVQLVESGGGLVQAGGSLRLSCAASGSTFYRNAMGWYRQAPGKERELVAGISYGGGSTYYADSVKGRFTISRDNAKNTVYLQMNSLKPEDTAVYYCYAVWVKRHYYYWGQGTQVTVSS”, the “polyreactivity (PSR sort gate)” value is on record as “low polyreactivity”.

“QVQLVESGGGLVQAGGSLRLSCAASGSTFYRNAMGWYRQAPGKERELVAGITSGVTTYYADSVKGRFTISRDNAKNTVYLQMNSLKPEDSAVYYCAVYWRGRGAFTYGSWGQGTQVTVSS”: the “polyreactivity (PSR sort gate)” value was “high polyreactivity”.

In the case of “QVQLVESGGGLVQAGGSLRLSCAASGSTFYRNSMGWYRQAPGKEREFVAAISFRGGGTYADSVKGRFTISRDNAKNTVYLQMNSLKPEDSAVYYCAADHQSYRRRYEYWGQGTQVTVSS”, the “polyreactivity (PSR sort gate)” value was “low polyreactivity”.

“QVQLVESGGGLVQAGGSLRLSCAASGSTFYRYAMGGYRQAPGKERELVASITRGGGRTHYADSVKGRFTISRDNAKNTVYLQMNSLKPEDTAVYYCAAVTPVSYRLYGYWGQGTQVTVSS”: the “polyreactivity (PSR sort gate)” value is “high polyreactivity”.

As to “QVQLVESGGGLVQAGGSLRLSCAASGSTFYRYAMGWYRQAPGKERELVAAINTGGSTNYADSVKGRFTISRDNAKNTVYLQMNSLKPEDTAVYYCAARFQYYRKYDYWGQGTQGTVSS”, the “polyreactivity (PSR sort gate)” value is “low polyreactivity”.

Turning to “QVQLVESGGGLVQAGGSLRLSCAASGSTFYRYAMGWYRQAPGKERELVATISKRGGSTYYADSVKGRFTISRDNAKYTVYLQMNSLKPEDTAVYYCNVRLEYRYYRGDYWGQGTQVTVSS”, the “polyreactivity (PSR sort gate)” value is recorded as “high polyreactivity”.

As to “QVQLVESGGGLVQAGGSLRLSCAASGSTFYRYAMGWYRQAPGKERELVATITNSGGSTYYADSVKGRFTISRDNAKYTVYLQMNSLKPEDTAVYYCARVRSRNTGYYYWGQGTQVTVSS”, the “polyreactivity (PSR sort gate)” value is “high polyreactivity”.

As to “QVQLVESGGGLVQAGGSLRLSCAASGSTFYRYTMGWYRQAPGKEREFVATITGRGGSTYADSVKGRFTISRDNAKNTVYLQMNSLKPEDTAVYYCAKRQTYREYDYWGQGTQVTVSS”, the “polyreactivity (PSR sort gate)” value is recorded as “low polyreactivity”.

For the sequence “QVQLVESGGGLVQAGGSLRLSCAASGSTFYSNAMGWYRQAPGKERELVAGIDTSDGSTNYADSVKGRFTISRDNAKNTVYLQMNSLKPEDTAVYYCAADYTQPGFVSYDYWGQGTQVTVSS”, the “polyreactivity (PSR sort gate)” value is on record as “low polyreactivity”.

Turning to “QVQLVESGGGLVQAGGSLRLSCAASGSTFYSNSMGWYRQAPGKERELVAAIDWGGGSTYYADSVKGRFTISRDNETNTVYLQMNSLKPEDTAVYYCAKKYYKVHKFDYWGQGNQVTVSS”, the “polyreactivity (PSR sort gate)” value is “low polyreactivity”.

For “QVQLVESGGGLVQAGGSLRLSCAASGSTFYSNVMGWYRQAPGKERELLAAISQSGGRTFYADSVKGRFTISRDNAKITVYLQMNSLKPEDSAVYYSNASSGNRYGPRYDYWGQGTQVTVSS”, the “polyreactivity (PSR sort gate)” value was “high polyreactivity”.
